Laboratory results taken from patent US11739333B2, “Regulation of gene expression by aptamer-modulated RNase p cleavage” (MeiraGTx UK II Limited, priority 2017, dated 2023).

How the values were obtained:
[1] = tested on: luciferase target gene expression in HEK 293 cells; assay: Firefly luciferase assay of cultured cells, mascRNA inserted in 3' UTR; format: cell-based; conditions: no ligand
Description: Plasmid constructs: DNA fragments containing mouse mascRNA sequence and restriction sites at each end were synthesized (IDT), and digested and cloned into a plasmid backbone Con 8 that contains CMV enhancer/promoter and human beta-globin polyadenylation sequence. All constructs were verified by DNA sequencing (Genewiz).
Firefly luciferase assay of cultured cells: 3.5×10^4 HEK 293 cells were plated in 96-well flat bottom plate the day before transfection. Plasmid DNA (500 ng) was added to a tube or a 96-well U-bottom plate. Separately, TransIT-293 reagent (Minis; 1.4 μL) was added to 50 μL opti-mem I media (Life Technologies) and allowed to sit for 5 minutes at room temperature (“RT”). Then, 50 μL of this diluted transfection reagent was added to the DNA, mixed, and incubated at RT for 20 min. Finally, 7 μL of this solution was added to a well of cells in a 96-well plate. 4 hours after transfection, medium containing transfection solution was replaced with fresh medium. 24 hours after media change, plates were removed from the incubator, and equilibrated to RT for several minutes on a lab bench, then aspirated. […] Following a 5-min incubation at RT, luminescence was measured using a Tecan machine with 500 mSec read time. The luciferase activity was expressed as mean arbitrary light unit (ALU)±S.D.

[2] = tested on: luciferase target gene expression in HEK 293 cells (aptamer-modulated RNase P cleavage of mRNA); assay: Firefly luciferase assay of transfected cells treated with or without aptamer ligand; format: cell-based
Description: Firefly luciferase assay of cultured cells: 3.5×10^4 HEK 293 cells were plated in 96-well flat bottom plate the day before transfection. Plasmid DNA (500 ng) was added to a tube or a 96-well U-bottom plate. Separately, TransIT-293 reagent (Minis; 1.4 μL) was added to 50 μL opti-mem I media (Life Technologies) and allowed to sit for 5 minutes at room temperature (“RT”). Then, 50 μL of this diluted transfection reagent was added to the DNA, mixed, and incubated at RT for 20 min. Finally, 7 μL of this solution was added to a well of cells in a 96-well plate. 4 hours after transfection, medium containing transfection solution was replaced with fresh medium. 24 hours after media change, plates were removed from the incubator, and equilibrated to RT for several minutes on a lab bench, then aspirated. Glo-lysis buffer (Promega, 100 μL, RT) was added, and the plates allowed to remain at RT for at least 5 minutes. Then, the well contents were mixed by 50 μL trituration, and 20 μL of each sample was mixed with 20 μL of bright-glo reagent (Promega) that had been diluted to 10% in glo-lysis buffer. 96 wells were spaced on an opaque white 384-well plate. Following a 5-min incubation at RT, luminescence was measured using a Tecan machine with 500 mSec read time. The luciferase activity was expressed as mean arbitrary light unit (ALU)±S.D.
Plasmid constructs: oligonucleotide fragments containing mascRNA and guanine aptamer sequences (Mandal, M, et al., Cell 113, 577-586 (2003), incorporated herein by reference) were synthesized (IDT) and cloned into a luciferase (Luci) expression construct (Con8) in the 3′ UTR region using compatible restriction sites BamHI and XhoI. All the constructs were verified by DNA sequencing (Genewiz).
Firefly luciferase assay of cultured cells: cells were transfected as described in Example 1. Four hours after transfection, medium containing transfection solution was replaced by medium with either 0.5% DMSO as solvent control or 500 μM guanosine (Sigma) as aptamer ligand. Twenty-two to twenty-four hours after treatment, a luciferase assay was performed as described in Example 1.
Plasmid construction: a DNA fragment containing sequences for the guanine aptamer xpt-G and human arginine pre-tRNA (Nashimoto M. N. et al. Long 5′ leaders inhibit removal of a 3′ trailer from a precursor tRNA by mammalian tRNA 3′ processing endoribonuclease. Nucleic Acids Research, 1999; 27(13): 2770-2776) were synthesized (IDT). The synthesized DNA fragments were digested with BamHI and XhoI restriction enzymes and cloned into the Con8 construct digested with the same restriction enzymes. Construct sequences were verified by DNA sequencing (Genewiz).
Plasmid construction: a DNA fragment containing sequences for the adenine aptamer ydhl-A (M. Mandal and R. R. Breaker, Adenine riboswitches and gene activation by disruption of a transcription terminator. Nature Structural & Molecular Biology. 2004; 11: 29-35, incorporated herein by reference) or theophylline aptamer (G. R. Zimmerman, et al. Interlocking structural motifs mediate molecular discrimination by a theophylline-binding RNA. Nature Structural Biology. 1997; 4: 644-649, incorporated herein by reference), and mascRNA sequence were synthesized (IDT). The synthesized DNA fragments were digested with BamHI and XhoI restriction enzymes and cloned into Con8 digested with the same restriction enzymes. Construct sequences were verified by DNA sequencing (Genewiz).
Four hours after transfection, the media was aspirated, and new media with NaOH (1 mM) as solvent or 1 mM adenine (Calbiochem), or 3 mM theophylline (Sigma) was added. The induction fold was expressed as the quotient of luciferase activity obtained in the presence of aptamer ligand divided by the value obtained in the absence of the aptamer ligand. […]

Luci-mascRNA-mlp: luciferase construct with mascRNA mutated in the T-loop from UUC to AAG, negative control (GACGCUGGUGGCUGGCACUCCUGGUUUCCAGGACGGGGAAGAAGUCCCUGCGGUGUCU)
decrease in luciferase expression compared to the luciferase construct that has no mascRNA (Luci) [1]: 20%

B1: GArg: SEQ ID NO: 14; GM1 with mascRNA replaced by human arginine tRNA sequence (nucleic acid)
chain: CCTCATAAAGGCCAAGAAGGGCGGAAAGATCGCCGTGTAAGGATCCAAGACGAGCTGTACAAGTAAAGAAGACTGCGACGATAATCGCGTGGATATGGCACGCAAGTTTCTACCGGGCACCGTAAATGTCCGACTCGTCGCAGGGCCAGTGGCGCAATGGATAACGCGTCTGACTACGGATCAGAAGATTCCAGGTTCGACTCCTGGCTGGCTCGGTGTAGGCCGCGACTCTAGAGTCGACCTGCAGGCATGCAAGCTTCAGCTGCTCGAGGGCCCAGATCTAATTCACCCCACCAGTGCAGGCTGCCTATCAG
basal level luciferase expression as % of control construct Con8 ([2]; absence of guanine): approximately 50% | induction fold of luciferase, with guanine versus without guanine ([2]; guanine treatment): 1.6 fold

B2: MG4: SEQ ID NO: 13; MG1 variant with 3 alternatively shared nucleotides (nucleic acid)
chain: CCTCATAAAGGCCAAGAAGGGCGGAAAGATCGCCGTGTAAGGATCCAAGACGAGCTGTACAAGTAAAGCGGCCAATTCGGACAAAAACGAGACGCTGGTGGCTGGCACTCCTGGTTTCCAGGACGGGGTTCAAGTCCCTGCGGTGTCTAGTATAATCGCGTGGATATGGCACGCAAGTTTCTACCGGGCACCGTAAATGTCCGACTACTAGACTTCTAGAGTCGACCTGCAGGCATGCAAGCTTCAGCTGCTCGAGGGCCCAGATCTAATTCACCCCACCAGTGCAGGCTGCCTATCAG
basal level luciferase activity ([2]; absence of guanine): modest decrease | induction fold of luciferase, with guanine versus without guanine ([2]; guanine treatment): approximately 2 fold

B3: MG3: SEQ ID NO: 12; MG1 variant with 4 alternatively shared nucleotides (nucleic acid)
chain: CCTCATAAAGGCCAAGAAGGGCGGAAAGATCGCCGTGTAAGGATCCAAGACGAGCTGTACAAGTAAAGCGGCCAATTCGGACAAAAACGAGACGCTGGTGGCTGGCACTCCTGGTTTCCAGGACGGGGTTCAAGTCCCTGCGGTGTCTGTATAATCGCGTGGATATGGCACGCAAGTTTCTACCGGGCACCGTAAATGTCCGACTACAGACAATCTAGAGTCGACCTGCAGGCATGCAAGCTTCAGCTGCTCGAGGGCCCAGATCTAATTCACCCCACCAGTGCAGGCTGCCTATCAG
basal level luciferase activity ([2]; absence of guanine): modest decrease | induction fold of luciferase, with guanine versus without guanine ([2]; guanine treatment): approximately 2 fold

B4: TheoM: SEQ ID NO: 16; theophylline aptamer and mascRNA in luciferase 3' UTR (nucleic acid)
chain: CCTCATAAAGGCCAAGAAGGGCGGAAAGATCGCCGTGTAAGGATCCAAGACGAGCTGTACAAGTAAAGCGGCCTAATGTGATACCAGCCGAAAGGCCCTTGGCAGCACATTAGACGCTGGTGGCTGGCACTCCTGGTTTCCAGGACGGGGTTCAAGTCCCTGCGGTGTCTTTGCTTGGATCGGCCGCGACTCTAGAGTCGACCTGCAGGCATGCAAGCTTCAGCTGCTCGAGGGCCCAGATCTAATTCACCCCACCAGTGCAGGCTGCCTATCAG
fold increase in luciferase expression with theophylline ([2]; 3 mM theophylline vs solvent): 4.1 fold | luciferase level as % of the control Con8 construct ([2]; absence of theophylline treatment): approximately 43.4%

B5: YM: SEQ ID NO: 15; ydhl-A adenine aptamer and mascRNA in luciferase 3' UTR (nucleic acid)
chain: CCTCATAAAGGCCAAGAAGGGCGGAAAGATCGCCGTGTAAGGATCCAAGACGAGCTGTACAAGTAAAGCGGCCGTAATGTTATAACCTCAATAATATGGTTTGAGGGTGTCTACCAGGAACCGTAAAATCCTGATTAACATTACGACGCTGGTGGCTGGCACTCCTGGTTTCCAGGACGGGGTTCAAGTCCCTGCGGTGTCTTTGCTTGGATCGGCCGCGACTCTAGAGTCGACCTGCAGGCATGCAAGCTTCAGCTGCTCGAGGGCCCAGATCTAATTCACCCCACCAGTGCAGGCTGCCTATCAG
fold increase in luciferase expression with adenine ([2]; 1 mM adenine vs NaOH solvent): 3.3 fold

B6: GM8: SEQ ID NO: 10; 3 nucleotides between effector region stem and mascRNA acceptor stem (nucleic acid)
chain: CCTCATAAAGGCCAAGAAGGGCGGAAAGATCGCCGTGTAAGGATCCAAGACGAGCTGTACAAGTAAAGAAGAGCTAATGTATAATCGCGTGGATATGGCACGCAAGTTTCTACCGGGCACCGTAAATGTCCGACTACATTAGCCGAGACGCTGGTGGCTGGCACTCCTGGTTTCCAGGACGGGGTTCAAGTCCCTGCGGTGTCTTTGCTTGGATCGGCCGCGACTCTAGAGTCGACCTGCAGGCATGCAAGCTTCAGCTGCTCGAGGGCCCAGATCTAATTCACCCCACCAGTGCAGGCTGCCTATCAG
luciferase expression in response to guanine treatment ([2]; guanine treatment): upregulate luciferase expression
